Experimental data as given in the supplement of paper PMC10065799, “High-throughput profiling of sequence recognition by tyrosine kinases and SH2 domains using bacterial peptide display” (eLife, 2023).

Tests used:
Grb2 SH2 = Grb2 SH2 (UniProt P62993); test: SH2 binding enrichment of the phosphorylated peptide, bacterial display (enrichment ratio); higher = better substrate or ligand; peptides without Tyr show the background
c-Src SH2 = test: as above
SHP2-C SH2 = test: as above
Fer (mouse) = test: phosphorylation enrichment, bacterial display (enrichment ratio); higher = better substrate or ligand; peptides without Tyr show the background
Hck = Hck (UniProt P08631); test: as above
Chain of Hck (P08631 whole entry, looked up): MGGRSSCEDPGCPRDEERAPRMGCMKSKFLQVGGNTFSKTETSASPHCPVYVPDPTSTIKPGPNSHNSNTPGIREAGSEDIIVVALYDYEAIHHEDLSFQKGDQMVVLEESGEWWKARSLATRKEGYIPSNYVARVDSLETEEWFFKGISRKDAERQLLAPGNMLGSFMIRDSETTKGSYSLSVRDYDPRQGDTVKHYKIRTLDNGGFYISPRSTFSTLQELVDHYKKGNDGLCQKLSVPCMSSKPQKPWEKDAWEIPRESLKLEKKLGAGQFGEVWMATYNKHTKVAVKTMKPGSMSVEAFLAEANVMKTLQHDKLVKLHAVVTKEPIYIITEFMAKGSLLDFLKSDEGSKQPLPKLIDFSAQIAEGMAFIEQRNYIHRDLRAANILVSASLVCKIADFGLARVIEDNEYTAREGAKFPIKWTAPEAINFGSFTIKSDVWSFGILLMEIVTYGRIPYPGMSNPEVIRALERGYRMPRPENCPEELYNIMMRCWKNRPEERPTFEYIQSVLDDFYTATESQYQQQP

c-Src = test: as above
c-Abl (mouse) = test: as above
MERTK = MERTK (UniProt Q12866); test: as above
Chain of MERTK (Q12866 whole entry, looked up): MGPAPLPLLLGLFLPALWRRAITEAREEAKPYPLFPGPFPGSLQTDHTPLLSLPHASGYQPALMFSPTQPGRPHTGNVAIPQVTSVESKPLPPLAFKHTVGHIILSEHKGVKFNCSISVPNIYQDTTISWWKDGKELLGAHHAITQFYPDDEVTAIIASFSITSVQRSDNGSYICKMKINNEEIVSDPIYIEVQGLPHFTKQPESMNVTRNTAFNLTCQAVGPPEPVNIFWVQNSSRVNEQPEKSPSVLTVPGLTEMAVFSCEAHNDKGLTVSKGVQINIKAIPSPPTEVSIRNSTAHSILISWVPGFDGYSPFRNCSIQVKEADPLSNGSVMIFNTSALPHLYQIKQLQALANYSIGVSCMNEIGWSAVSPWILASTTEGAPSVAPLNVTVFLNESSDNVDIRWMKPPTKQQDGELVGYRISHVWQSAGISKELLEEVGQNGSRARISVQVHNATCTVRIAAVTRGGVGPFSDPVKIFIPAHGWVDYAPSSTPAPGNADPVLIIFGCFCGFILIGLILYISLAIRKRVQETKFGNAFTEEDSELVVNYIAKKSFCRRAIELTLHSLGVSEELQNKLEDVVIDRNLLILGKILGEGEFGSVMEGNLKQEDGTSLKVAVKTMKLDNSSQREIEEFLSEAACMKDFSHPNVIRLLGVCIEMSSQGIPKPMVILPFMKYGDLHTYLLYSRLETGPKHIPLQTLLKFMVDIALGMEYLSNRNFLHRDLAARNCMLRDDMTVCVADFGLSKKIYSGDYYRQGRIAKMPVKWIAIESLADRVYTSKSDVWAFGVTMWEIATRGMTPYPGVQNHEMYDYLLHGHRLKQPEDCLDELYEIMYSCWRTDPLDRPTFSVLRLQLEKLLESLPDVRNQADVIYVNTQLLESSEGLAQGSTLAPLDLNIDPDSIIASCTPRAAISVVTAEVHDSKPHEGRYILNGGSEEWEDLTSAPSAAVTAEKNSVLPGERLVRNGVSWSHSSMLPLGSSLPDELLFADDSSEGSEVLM

Fes = Fes (UniProt P07332); test: as above
EPHB1 = EPHB1 (UniProt P54762); test: as above
Fyn = Fyn (UniProt P06241); test: as above
Chain of Fyn (P06241 whole entry, looked up): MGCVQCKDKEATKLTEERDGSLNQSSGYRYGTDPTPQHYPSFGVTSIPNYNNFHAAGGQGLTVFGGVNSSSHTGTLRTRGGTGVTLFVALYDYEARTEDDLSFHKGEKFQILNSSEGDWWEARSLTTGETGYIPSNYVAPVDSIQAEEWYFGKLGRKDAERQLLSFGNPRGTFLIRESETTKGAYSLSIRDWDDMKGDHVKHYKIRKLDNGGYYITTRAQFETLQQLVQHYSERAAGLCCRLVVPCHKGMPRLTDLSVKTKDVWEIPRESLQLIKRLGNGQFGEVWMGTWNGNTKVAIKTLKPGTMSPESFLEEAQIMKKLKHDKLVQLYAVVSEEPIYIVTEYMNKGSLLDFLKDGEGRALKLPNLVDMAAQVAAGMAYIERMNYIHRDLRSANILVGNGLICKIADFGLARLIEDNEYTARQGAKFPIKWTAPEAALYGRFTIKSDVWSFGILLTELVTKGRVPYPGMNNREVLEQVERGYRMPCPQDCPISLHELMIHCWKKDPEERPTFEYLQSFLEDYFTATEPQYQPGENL

EPHB2 = EPHB2 (UniProt P29323); test: as above
AncSZ = test: as above
Jak2 = Jak2 (UniProt O60674); test: as above
Chain of Jak2 (O60674 whole entry, looked up): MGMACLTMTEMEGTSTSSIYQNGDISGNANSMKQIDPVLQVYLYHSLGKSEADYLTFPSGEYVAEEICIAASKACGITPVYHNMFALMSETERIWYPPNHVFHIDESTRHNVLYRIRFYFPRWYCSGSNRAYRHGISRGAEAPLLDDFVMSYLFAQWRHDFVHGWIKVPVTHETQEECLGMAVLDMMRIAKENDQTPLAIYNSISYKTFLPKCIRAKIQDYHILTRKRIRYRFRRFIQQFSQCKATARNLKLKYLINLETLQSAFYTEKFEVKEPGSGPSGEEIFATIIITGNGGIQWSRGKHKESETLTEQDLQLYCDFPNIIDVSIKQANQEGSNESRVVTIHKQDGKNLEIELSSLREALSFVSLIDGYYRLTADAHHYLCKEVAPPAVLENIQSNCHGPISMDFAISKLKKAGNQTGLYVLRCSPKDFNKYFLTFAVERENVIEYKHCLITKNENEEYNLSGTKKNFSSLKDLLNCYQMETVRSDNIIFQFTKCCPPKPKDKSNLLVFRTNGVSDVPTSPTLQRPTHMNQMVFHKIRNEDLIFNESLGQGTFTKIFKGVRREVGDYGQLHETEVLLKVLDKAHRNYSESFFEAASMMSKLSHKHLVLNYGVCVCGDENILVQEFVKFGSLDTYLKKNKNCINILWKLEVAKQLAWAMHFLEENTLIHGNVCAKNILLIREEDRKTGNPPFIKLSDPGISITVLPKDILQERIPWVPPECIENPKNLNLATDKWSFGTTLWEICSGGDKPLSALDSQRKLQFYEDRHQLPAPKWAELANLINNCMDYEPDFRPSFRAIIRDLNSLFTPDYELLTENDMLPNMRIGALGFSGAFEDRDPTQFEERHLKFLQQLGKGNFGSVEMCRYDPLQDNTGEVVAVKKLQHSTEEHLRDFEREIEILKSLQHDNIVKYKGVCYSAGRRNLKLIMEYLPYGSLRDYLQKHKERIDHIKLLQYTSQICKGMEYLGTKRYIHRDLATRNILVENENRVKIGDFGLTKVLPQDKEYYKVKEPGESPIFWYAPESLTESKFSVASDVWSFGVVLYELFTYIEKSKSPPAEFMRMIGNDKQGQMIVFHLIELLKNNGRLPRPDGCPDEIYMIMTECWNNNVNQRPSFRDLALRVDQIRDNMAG

FGFR3 = FGFR3 (UniProt P22607); test: as above
Chain of FGFR3 (P22607 whole entry, looked up): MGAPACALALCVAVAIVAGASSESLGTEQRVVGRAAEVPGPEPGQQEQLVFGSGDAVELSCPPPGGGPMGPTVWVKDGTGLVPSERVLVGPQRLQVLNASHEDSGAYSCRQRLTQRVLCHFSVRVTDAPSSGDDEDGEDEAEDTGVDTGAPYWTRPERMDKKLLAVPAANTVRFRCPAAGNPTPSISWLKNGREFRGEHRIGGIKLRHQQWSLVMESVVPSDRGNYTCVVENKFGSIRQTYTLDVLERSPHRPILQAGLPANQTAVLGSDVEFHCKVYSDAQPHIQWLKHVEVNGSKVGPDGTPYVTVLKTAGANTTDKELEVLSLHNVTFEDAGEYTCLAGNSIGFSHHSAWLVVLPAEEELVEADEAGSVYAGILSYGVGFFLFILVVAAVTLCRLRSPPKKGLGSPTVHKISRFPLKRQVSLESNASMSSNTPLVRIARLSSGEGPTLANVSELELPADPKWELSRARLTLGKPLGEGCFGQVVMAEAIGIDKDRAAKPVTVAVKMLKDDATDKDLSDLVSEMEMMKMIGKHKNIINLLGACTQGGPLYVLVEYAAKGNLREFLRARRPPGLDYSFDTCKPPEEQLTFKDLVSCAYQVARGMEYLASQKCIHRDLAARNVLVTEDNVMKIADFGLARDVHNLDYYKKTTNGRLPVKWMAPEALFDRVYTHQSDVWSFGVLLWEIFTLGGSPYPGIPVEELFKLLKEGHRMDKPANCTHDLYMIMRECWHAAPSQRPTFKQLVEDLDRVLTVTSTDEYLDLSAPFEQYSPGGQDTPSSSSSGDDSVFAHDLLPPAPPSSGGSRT

FGFR1 = FGFR1 (UniProt P11362); test: as above
Chain of FGFR1 (P11362 whole entry, looked up, the tested form may be a part): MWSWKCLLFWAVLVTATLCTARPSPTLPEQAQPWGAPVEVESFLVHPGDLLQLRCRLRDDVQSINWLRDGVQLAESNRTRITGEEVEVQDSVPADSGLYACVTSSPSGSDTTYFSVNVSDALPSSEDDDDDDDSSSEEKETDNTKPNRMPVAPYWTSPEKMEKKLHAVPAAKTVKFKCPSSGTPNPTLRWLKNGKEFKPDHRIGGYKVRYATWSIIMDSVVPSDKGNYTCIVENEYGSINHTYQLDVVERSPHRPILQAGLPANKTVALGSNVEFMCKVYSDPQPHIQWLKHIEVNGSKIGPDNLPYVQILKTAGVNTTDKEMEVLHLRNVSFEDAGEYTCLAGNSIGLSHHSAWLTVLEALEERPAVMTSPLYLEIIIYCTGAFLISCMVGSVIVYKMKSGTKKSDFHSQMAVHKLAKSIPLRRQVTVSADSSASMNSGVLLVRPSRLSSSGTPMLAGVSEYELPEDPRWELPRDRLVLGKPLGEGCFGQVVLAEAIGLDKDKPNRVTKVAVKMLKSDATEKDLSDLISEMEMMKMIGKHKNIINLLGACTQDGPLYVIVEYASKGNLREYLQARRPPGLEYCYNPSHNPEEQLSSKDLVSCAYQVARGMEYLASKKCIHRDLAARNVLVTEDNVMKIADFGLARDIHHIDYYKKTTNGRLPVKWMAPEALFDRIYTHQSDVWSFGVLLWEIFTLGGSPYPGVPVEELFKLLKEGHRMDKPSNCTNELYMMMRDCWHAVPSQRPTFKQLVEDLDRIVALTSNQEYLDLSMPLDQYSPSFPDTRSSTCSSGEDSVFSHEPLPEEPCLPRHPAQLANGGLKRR
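Throughout, for SH2 binding enrichment of the phosphorylated peptide, bacterial display: peptide library displayed on the E. coli surface as eCPX fusions, selected cells deep-sequenced, score is each peptide's frequency after selection divided by its frequency in the input.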
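Throughout, for phosphorylation enrichment, bacterial display: 11-residue human phosphosite peptides and single-mutation variants displayed on the E. coli surface, counted by deep sequencing, each peptide's frequency after selection divided by its frequency in the unselected input library; frequency after pTyr selection over input frequency; kinase dosed for 20-30% of maximal phosphorylation in three min.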

Chain of Grb2 SH2 (P62993 whole entry, looked up): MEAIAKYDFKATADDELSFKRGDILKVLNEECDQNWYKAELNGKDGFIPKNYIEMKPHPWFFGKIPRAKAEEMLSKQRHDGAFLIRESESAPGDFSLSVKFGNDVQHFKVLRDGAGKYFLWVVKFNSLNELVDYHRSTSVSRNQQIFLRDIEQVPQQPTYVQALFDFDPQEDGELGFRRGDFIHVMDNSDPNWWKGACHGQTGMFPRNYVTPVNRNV

Sequence: GASWRYRSGVS [NEU1_Y242_G243R]
- SH2 binding enrichment (Grb2 SH2): 0.82
- SH2 binding enrichment (c-Src SH2): 0.391
- SH2 binding enrichment (SHP2-C SH2): 0.524
- phosphorylation enrichment (Fer (mouse)): 0.474
- phosphorylation enrichment (Hck): 0.46
- phosphorylation enrichment (c-Src): 0.445
- phosphorylation enrichment (c-Abl (mouse)): 0.48
- phosphorylation enrichment (MERTK): 0.402
- phosphorylation enrichment (Fes): 0.693
- phosphorylation enrichment (EPHB1): 0.388
- phosphorylation enrichment (Fyn): 0.388
- phosphorylation enrichment (EPHB2): 0.608
- phosphorylation enrichment (AncSZ): 0.583
- phosphorylation enrichment (Jak2): 0.587
- phosphorylation enrichment (FGFR3): 0.511
- phosphorylation enrichment (FGFR1): 0.494

Sequence: QLDQHYLLVPE [DDX49_Y223_R222H]
- SH2 binding enrichment (Grb2 SH2): 0.815
- SH2 binding enrichment (c-Src SH2): 0.604
- SH2 binding enrichment (SHP2-C SH2): 0.436
- phosphorylation enrichment (Fer (mouse)): 0.643
- phosphorylation enrichment (Hck): 0.893
- phosphorylation enrichment (c-Src): 0.654
- phosphorylation enrichment (c-Abl (mouse)): 0.642
- phosphorylation enrichment (MERTK): 0.825
- phosphorylation enrichment (Fes): 1.1
- phosphorylation enrichment (EPHB1): 1.21
- phosphorylation enrichment (Fyn): 0.955
- phosphorylation enrichment (EPHB2): 1.09
- phosphorylation enrichment (AncSZ): 1.16
- phosphorylation enrichment (Jak2): 1.14
- phosphorylation enrichment (FGFR3): 2.09
- phosphorylation enrichment (FGFR1): 1.6

Sequence: IKEFKYGIEEH [GJA1_Y137_K134E]
- SH2 binding enrichment (Grb2 SH2): 0.856
- SH2 binding enrichment (c-Src SH2): 0.457
- SH2 binding enrichment (SHP2-C SH2): 0.489
- phosphorylation enrichment (Fer (mouse)): 0.402
- phosphorylation enrichment (Hck): 0.42
- phosphorylation enrichment (c-Src): 0.365
- phosphorylation enrichment (c-Abl (mouse)): 0.612
- phosphorylation enrichment (MERTK): 0.342
- phosphorylation enrichment (Fes): 0.918
- phosphorylation enrichment (EPHB1): 0.39
- phosphorylation enrichment (Fyn): 0.349
- phosphorylation enrichment (EPHB2): 0.464
- phosphorylation enrichment (AncSZ): 0.836
- phosphorylation enrichment (Jak2): 0.581
- phosphorylation enrichment (FGFR3): 0.684
- phosphorylation enrichment (FGFR1): 0.508

Sequence: HILQLYRCREE [ALPK3_Y342_T338I]
- SH2 binding enrichment (Grb2 SH2): 0.729
- SH2 binding enrichment (c-Src SH2): 0.546
- SH2 binding enrichment (SHP2-C SH2): 0.748
- phosphorylation enrichment (Fer (mouse)): 0.556
- phosphorylation enrichment (Hck): 0.553
- phosphorylation enrichment (c-Src): 0.577
- phosphorylation enrichment (c-Abl (mouse)): 0.423
- phosphorylation enrichment (MERTK): 0.515
- phosphorylation enrichment (Fes): 1.05
- phosphorylation enrichment (EPHB1): 0.924
- phosphorylation enrichment (Fyn): 0.65
- phosphorylation enrichment (EPHB2): 0.705
- phosphorylation enrichment (AncSZ): 0.945
- phosphorylation enrichment (Jak2): 0.709
- phosphorylation enrichment (FGFR3): 0.871
- phosphorylation enrichment (FGFR1): 0.763

Sequence: IDNKMYDPKMN [ENPP1_Y280]
- SH2 binding enrichment (Grb2 SH2): 1.17
- SH2 binding enrichment (c-Src SH2): 0.578
- SH2 binding enrichment (SHP2-C SH2): 0.623
- phosphorylation enrichment (Fer (mouse)): 0.355
- phosphorylation enrichment (Hck): 0.478
- phosphorylation enrichment (c-Src): 0.344
- phosphorylation enrichment (c-Abl (mouse)): 0.41
- phosphorylation enrichment (MERTK): 0.304
- phosphorylation enrichment (Fes): 0.729
- phosphorylation enrichment (EPHB1): 0.369
- phosphorylation enrichment (Fyn): 0.404
- phosphorylation enrichment (EPHB2): 0.362
- phosphorylation enrichment (AncSZ): 0.699
- phosphorylation enrichment (Jak2): 0.385
- phosphorylation enrichment (FGFR3): 0.471
- phosphorylation enrichment (FGFR1): 0.553

Sequence: TSNNPYFRDQA [RPGRIP1_Y846_A841T]
- SH2 binding enrichment (Grb2 SH2): 0.789
- SH2 binding enrichment (c-Src SH2): 0.503
- SH2 binding enrichment (SHP2-C SH2): 0.844
- phosphorylation enrichment (Fer (mouse)): 0.396
- phosphorylation enrichment (Hck): 0.454
- phosphorylation enrichment (c-Src): 0.721
- phosphorylation enrichment (c-Abl (mouse)): 0.628
- phosphorylation enrichment (MERTK): 0.473
- phosphorylation enrichment (Fes): 0.796
- phosphorylation enrichment (EPHB1): 0.395
- phosphorylation enrichment (Fyn): 0.51
- phosphorylation enrichment (EPHB2): 0.374
- phosphorylation enrichment (AncSZ): 0.665
- phosphorylation enrichment (Jak2): 0.901
- phosphorylation enrichment (FGFR3): 0.544
- phosphorylation enrichment (FGFR1): 0.451

Sequence: METKGYQSLPE [NR3C2_Y6_H7Q]
- SH2 binding enrichment (Grb2 SH2): 0.728
- SH2 binding enrichment (c-Src SH2): 0.841
- SH2 binding enrichment (SHP2-C SH2): 0.557
- phosphorylation enrichment (Fer (mouse)): 0.448
- phosphorylation enrichment (Hck): 0.423
- phosphorylation enrichment (c-Src): 0.326
- phosphorylation enrichment (c-Abl (mouse)): 0.683
- phosphorylation enrichment (MERTK): 0.361
- phosphorylation enrichment (Fes): 0.825
- phosphorylation enrichment (EPHB1): 0.495
- phosphorylation enrichment (Fyn): 0.421
- phosphorylation enrichment (EPHB2): 0.449
- phosphorylation enrichment (AncSZ): 0.682
- phosphorylation enrichment (Jak2): 0.77
- phosphorylation enrichment (FGFR3): 0.568
- phosphorylation enrichment (FGFR1): 0.449

Sequence: SGEKPYKCSEC [ZNF543_Y283]
- SH2 binding enrichment (Grb2 SH2): 1.02
- SH2 binding enrichment (c-Src SH2): 0.488
- SH2 binding enrichment (SHP2-C SH2): 0.65
- phosphorylation enrichment (Fer (mouse)): 0.456
- phosphorylation enrichment (Hck): 0.531
- phosphorylation enrichment (c-Src): 0.544
- phosphorylation enrichment (c-Abl (mouse)): 0.654
- phosphorylation enrichment (MERTK): 0.58
- phosphorylation enrichment (Fes): 0.829
- phosphorylation enrichment (EPHB1): 0.5
- phosphorylation enrichment (Fyn): 0.533
- phosphorylation enrichment (EPHB2): 0.502
- phosphorylation enrichment (AncSZ): 0.664
- phosphorylation enrichment (Jak2): 0.765
- phosphorylation enrichment (FGFR3): 0.551
- phosphorylation enrichment (FGFR1): 0.535

Sequence: WVFNHYRWFIW [BRCA2_Y2624_I2627F_YF]
- SH2 binding enrichment (Grb2 SH2): 0.941
- SH2 binding enrichment (c-Src SH2): 0.587
- SH2 binding enrichment (SHP2-C SH2): 0.693
- phosphorylation enrichment (Fer (mouse)): 0.575
- phosphorylation enrichment (Hck): 0.482
- phosphorylation enrichment (c-Src): 0.409
- phosphorylation enrichment (c-Abl (mouse)): 0.898
- phosphorylation enrichment (MERTK): 0.463
- phosphorylation enrichment (Fes): 1.32
- phosphorylation enrichment (EPHB1): 0.654
- phosphorylation enrichment (Fyn): 0.462
- phosphorylation enrichment (EPHB2): 0.636
- phosphorylation enrichment (AncSZ): 1.13
- phosphorylation enrichment (Jak2): 1.25
- phosphorylation enrichment (FGFR3): 0.813
- phosphorylation enrichment (FGFR1): 0.49

Sequence: LREIRYQGGNR [VWF_Y1570_V1565L]
- SH2 binding enrichment (Grb2 SH2): 0.835
- SH2 binding enrichment (c-Src SH2): 0.454
- SH2 binding enrichment (SHP2-C SH2): 0.504
- phosphorylation enrichment (Fer (mouse)): 0.537
- phosphorylation enrichment (Hck): 0.469
- phosphorylation enrichment (c-Src): 0.488
- phosphorylation enrichment (c-Abl (mouse)): 0.653
- phosphorylation enrichment (MERTK): 0.52
- phosphorylation enrichment (Fes): 0.636
- phosphorylation enrichment (EPHB1): 0.385
- phosphorylation enrichment (Fyn): 0.756
- phosphorylation enrichment (EPHB2): 0.518
- phosphorylation enrichment (AncSZ): 0.796
- phosphorylation enrichment (Jak2): 0.643
- phosphorylation enrichment (FGFR3): 0.551
- phosphorylation enrichment (FGFR1): 0.671

Sequence: KVALLYKPFFF [POLE_Y100_P99L_YF]
- SH2 binding enrichment (Grb2 SH2): 1.78
- SH2 binding enrichment (c-Src SH2): 1.49
- SH2 binding enrichment (SHP2-C SH2): 1.62
- phosphorylation enrichment (Fer (mouse)): 1.39
- phosphorylation enrichment (Hck): 0.82
- phosphorylation enrichment (c-Src): 1.67
- phosphorylation enrichment (c-Abl (mouse)): 0.921
- phosphorylation enrichment (MERTK): 0.772
- phosphorylation enrichment (Fes): 1.17
- phosphorylation enrichment (EPHB1): 0.516
- phosphorylation enrichment (Fyn): 0.827
- phosphorylation enrichment (EPHB2): 0.606
- phosphorylation enrichment (AncSZ): 1.15
- phosphorylation enrichment (Jak2): 1.12
- phosphorylation enrichment (FGFR3): 0.704
- phosphorylation enrichment (FGFR1): 0.496

Sequence: YLRTGYSIPYG [TGM1_Y370_V372I]
- SH2 binding enrichment (Grb2 SH2): 1.01
- SH2 binding enrichment (c-Src SH2): 9.77
- SH2 binding enrichment (SHP2-C SH2): 2.11
- phosphorylation enrichment (Fer (mouse)): 0.384
- phosphorylation enrichment (Hck): 0.39
- phosphorylation enrichment (c-Src): 0.457
- phosphorylation enrichment (c-Abl (mouse)): 0.702
- phosphorylation enrichment (MERTK): 1.21
- phosphorylation enrichment (Fes): 0.677
- phosphorylation enrichment (EPHB1): 0.451
- phosphorylation enrichment (Fyn): 0.375
- phosphorylation enrichment (EPHB2): 0.461
- phosphorylation enrichment (AncSZ): 0.777
- phosphorylation enrichment (Jak2): 0.804
- phosphorylation enrichment (FGFR3): 0.574
- phosphorylation enrichment (FGFR1): 0.554

Sequence: GQRDLYSGLNQ [CD3E_Y199]
- SH2 binding enrichment (Grb2 SH2): 0.852
- SH2 binding enrichment (c-Src SH2): 0.822
- SH2 binding enrichment (SHP2-C SH2): 0.574
- phosphorylation enrichment (Fer (mouse)): 4.76
- phosphorylation enrichment (Hck): 12.4
- phosphorylation enrichment (c-Src): 6.88
- phosphorylation enrichment (c-Abl (mouse)): 1.06
- phosphorylation enrichment (MERTK): 5.2
- phosphorylation enrichment (Fes): 0.749
- phosphorylation enrichment (EPHB1): 2.25
- phosphorylation enrichment (Fyn): 6.14
- phosphorylation enrichment (EPHB2): 2.35
- phosphorylation enrichment (AncSZ): 1.11
- phosphorylation enrichment (Jak2): 0.594
- phosphorylation enrichment (FGFR3): 0.583
- phosphorylation enrichment (FGFR1): 0.449

Sequence: TFVKSYTIHFS [F5_Y2153_M2148T_YF]
- SH2 binding enrichment (Grb2 SH2): 0.97
- SH2 binding enrichment (c-Src SH2): 0.537
- SH2 binding enrichment (SHP2-C SH2): 0.729
- phosphorylation enrichment (Fer (mouse)): 0.521
- phosphorylation enrichment (Hck): 0.424
- phosphorylation enrichment (c-Src): 0.447
- phosphorylation enrichment (c-Abl (mouse)): 0.873
- phosphorylation enrichment (MERTK): 0.434
- phosphorylation enrichment (Fes): 1.29
- phosphorylation enrichment (EPHB1): 0.599
- phosphorylation enrichment (Fyn): 0.468
- phosphorylation enrichment (EPHB2): 0.468
- phosphorylation enrichment (AncSZ): 1.04
- phosphorylation enrichment (Jak2): 1.28
- phosphorylation enrichment (FGFR3): 0.899
- phosphorylation enrichment (FGFR1): 0.517

Sequence: EKLQKYFRKNP [EHHADH_Y682_Q685K_YF]
- SH2 binding enrichment (Grb2 SH2): 0.914
- SH2 binding enrichment (c-Src SH2): 0.549
- SH2 binding enrichment (SHP2-C SH2): 0.802
- phosphorylation enrichment (Fer (mouse)): 0.514
- phosphorylation enrichment (Hck): 0.646
- phosphorylation enrichment (c-Src): 0.613
- phosphorylation enrichment (c-Abl (mouse)): 0.763
- phosphorylation enrichment (MERTK): 0.567
- phosphorylation enrichment (Fes): 0.895
- phosphorylation enrichment (EPHB1): 0.693
- phosphorylation enrichment (Fyn): 0.527
- phosphorylation enrichment (EPHB2): 0.615
- phosphorylation enrichment (AncSZ): 0.613
- phosphorylation enrichment (Jak2): 0.991
- phosphorylation enrichment (FGFR3): 0.553
- phosphorylation enrichment (FGFR1): 0.473
